The numbers were not newly measured in patent publication US6835389B1, “Powder Composition for nasal administration” (Teijin Limited, priority 1998, dated 2004), which cites them from elsewhere.

For the data set the following is noted: 10 units of insulin to rabbits, nasal, Example 4 of Kokoku No. 62-42888.

Regarding insulin, the “absorption rate calculated from the AUC” value is on record as not above 10%, the maximum blood concentration is given as not above 200 μU/ml and the “maximum blood concentration relative to that of the injection administration” value was “about 20%”.
